According to PMC4469990 (2015):
Residue numbers refer to the chain shown, from its start. Like-named read-outs stand apart in the source and are kept apart here.

What was measured:
[1] = molecular target: Factor VIII A3C1C2 subunit A3C1C2 (Homo sapiens) (UniProt P00451); conditions: cited from earlier work
[2] = molecular target: Factor VIII A1/A3C1C2 dimer A1/A3C1C2 (Homo sapiens) (UniProt P00451); assay: FXa generation assay; conditions: cited from earlier work
[3] = molecular target: Factor VIII A1/A3C1C2 dimer A1/A3C1C2 (Homo sapiens) (UniProt P00451); conditions: cited from earlier work
[4] = molecular target: T1, Factor VIIIa A1/A3C1C2 dimer A1/A3C1C2 (Homo sapiens, UniProt P00451); assay: FVIIIa reconstitution assay
T1 chain 1: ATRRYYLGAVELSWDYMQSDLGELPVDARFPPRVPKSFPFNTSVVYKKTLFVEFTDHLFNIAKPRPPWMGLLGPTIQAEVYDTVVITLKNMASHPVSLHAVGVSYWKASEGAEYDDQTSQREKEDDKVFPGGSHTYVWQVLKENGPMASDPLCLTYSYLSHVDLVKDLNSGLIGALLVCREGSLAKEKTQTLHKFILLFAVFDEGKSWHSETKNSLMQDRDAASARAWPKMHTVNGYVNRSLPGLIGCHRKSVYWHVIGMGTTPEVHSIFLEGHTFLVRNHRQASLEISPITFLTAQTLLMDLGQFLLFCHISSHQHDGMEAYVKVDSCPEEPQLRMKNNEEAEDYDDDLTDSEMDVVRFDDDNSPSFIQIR
T1 chain 2: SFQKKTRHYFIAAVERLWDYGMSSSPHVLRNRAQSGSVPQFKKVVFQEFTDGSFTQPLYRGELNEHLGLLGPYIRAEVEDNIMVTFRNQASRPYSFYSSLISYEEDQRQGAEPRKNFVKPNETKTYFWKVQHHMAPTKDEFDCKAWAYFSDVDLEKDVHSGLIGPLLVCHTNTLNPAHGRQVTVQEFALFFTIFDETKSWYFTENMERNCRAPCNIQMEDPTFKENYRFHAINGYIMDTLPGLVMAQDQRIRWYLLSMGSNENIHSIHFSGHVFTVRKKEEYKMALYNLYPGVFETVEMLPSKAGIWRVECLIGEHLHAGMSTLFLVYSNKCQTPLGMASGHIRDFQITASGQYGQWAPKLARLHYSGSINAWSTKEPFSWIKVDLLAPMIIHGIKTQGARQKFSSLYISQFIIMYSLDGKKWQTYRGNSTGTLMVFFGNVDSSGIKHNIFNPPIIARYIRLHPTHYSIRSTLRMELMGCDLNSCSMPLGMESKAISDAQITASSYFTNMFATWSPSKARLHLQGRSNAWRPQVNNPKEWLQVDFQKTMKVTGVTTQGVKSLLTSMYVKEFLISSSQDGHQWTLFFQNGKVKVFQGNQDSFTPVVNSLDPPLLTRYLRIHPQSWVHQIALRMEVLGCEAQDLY

Molecule: Factor VIII A1 subunit A1 (from UniProt P00451)
- Kd [1]: 60 nM

Molecule: Factor VIII A2 subunit A2 (from UniProt P00451)
- Kd [2]: 30 nM
- Kd [3]: 260 nM

B1: Factor VIIIa A2 subunit A2 (protein)
chain: SVAKKHPKTWVHYIAAEEEDWDYAPLVLAPDDRSYKSQYLNNGPQRIGRKYKKVRFMAYTDETFKTREAIQHESGILGPLLYGEVGDTLLIIFKNQASRPYNIYPHGITDVRPLYSRRLPKGVKHLKDFPILPGEIFKYKWTVTVEDGPTKSDPRCLTRYYSSFVNMERDLASGLIGPLLICYKESVDQRGNQIMSDKRNVILFSVFDENRSWYLTENIQRFLPNPAGVQLEDPEFQASNIMHSINGYVFDSLQLSVCLHEVAYWYILSIGAQTDFLSVFFSGYTFKHKMVYEDTLTLFPFSGETVFMSMENPGLWILGCHNSDFRNRGMTALLKVSSCDKNTGDYYEDSYEDISAYLLSKNNAIEPR
- Kd [4]: 56.3 nM

B2: Factor VIIIa A2 subunit A2 (protein)
chain: B1 chain with D128V
- Kd [4]: 10 nM
